Numbered stars: 1 amine (or outer) side, 2 acyl side, 3 side chain; on linkers, the order of the positions; unused ones are H or OH. Bridge positions count the residues as written; N and C are the ends. Side chains are listed from the residue outwards. Ends that are not written are not given here. * marks the point of attachment. C20 diacid = O=C(O)CCCCCCCCCCCCCCCCCCC(=O)*; γGlu = O=C(O)[C@H](CCC(=O)[*:2])N[*:1]; AEEA = NCCOCCOCC(=O)O
T1: human amylin receptor (amylin 3(a) receptor: human calcitonin receptor with RAMP-3) (human, UniProt P30988 25-474; O60896 24-148)
T1 construct: whole, on cells; also called hAmylin-R; hAmylinR
T1 sequence (looked up) 1: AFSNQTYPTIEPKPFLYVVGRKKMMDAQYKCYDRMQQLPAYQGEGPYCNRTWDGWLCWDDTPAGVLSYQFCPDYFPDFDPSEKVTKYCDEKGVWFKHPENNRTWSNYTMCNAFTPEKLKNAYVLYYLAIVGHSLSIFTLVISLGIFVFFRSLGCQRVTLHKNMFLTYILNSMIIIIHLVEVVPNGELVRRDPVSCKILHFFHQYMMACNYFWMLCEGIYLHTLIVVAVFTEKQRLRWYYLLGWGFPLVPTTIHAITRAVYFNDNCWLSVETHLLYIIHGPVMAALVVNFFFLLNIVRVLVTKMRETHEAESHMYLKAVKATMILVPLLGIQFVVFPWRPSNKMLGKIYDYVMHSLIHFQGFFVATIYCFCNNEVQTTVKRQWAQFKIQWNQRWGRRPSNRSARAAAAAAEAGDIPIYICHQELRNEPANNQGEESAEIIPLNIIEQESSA
T1 sequence (looked up) 2: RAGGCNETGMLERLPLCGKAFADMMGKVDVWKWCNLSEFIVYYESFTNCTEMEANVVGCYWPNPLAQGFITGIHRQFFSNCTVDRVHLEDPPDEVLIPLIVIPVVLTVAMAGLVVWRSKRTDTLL


target: T1, human amylin receptor (amylin 3(a) …); test: SPA displacement of 125I-rat amylin, hAmylin 3(a) receptor membranes
How it was run: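 Cell membranes were prepared by homogenisation in Na-HEPES/EDTA buffer, pH 7.4, and stored at −80° C. They were then coupled to SPA beads at 35 ng/μL final and exposed to compounds in assay buffer containing CaCl2, MgCl₂, OA and Tween20. After 120 min at 25° C, plates were counted and IC₅₀ derived.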

Row | Binder | IC50
1 | K([γGlu-C20 diacid])RCNTATCATQRLANFLRHSSPNFGAIPSSTNVGSHTY-NH2 (disulfide 3-8; N-terminus assumed; SMILES CC[C@H](C)[C@H](NC(=O)[C@H](C)NC(=O)CNC(=O)[C@H](Cc1ccccc1)NC(=O)[C@H](CC(N)=O)NC(=O)[C@@H]1CCCN1C(=O)[C@H](CO)NC(=O)[C@H](CO)NC(=O)[C@H](Cc1c[nH]cn1)NC(=O)[C@H](CCCNC(=N)N)NC(=O)[C@H](CC(C)C)NC(=O)[C@H](Cc1ccccc1)NC(=O)[C@H](CC(N)=O)NC(=O)[C@H](C)NC(=O)[C@H](CC(C)C)NC(=O)[C@H](CCCNC(=N)N)NC(=O)[C@H](CCC(N)=O)NC(=O)[C@@H](NC(=O)[C@H](C)NC(=O)[C@@H]1CSSC[C@H](NC(=O)[C@H](CCCNC(=N)N)NC(=O)[C@@H](N)CCCCNC(=O)CC[C@H](NC(=O)CCCCCCCCCCCCCCCCCCC(=O)O)C(=O)O)C(=O)N[C@@H](CC(N)=O)C(=O)N[C@@H]([C@@H](C)O)C(=O)N[C@@H](C)C(=O)N[C@@H]([C@@H](C)O)C(=O)N1)[C@@H](C)O)C(=O)N1CCC[C@H]1C(=O)N[C@@H](CO)C(=O)N[C@@H](CO)C(=O)N[C@H](C(=O)N[C@@H](CC(N)=O)C(=O)N[C@H](C(=O)NCC(=O)N[C@@H](CO)C(=O)N[C@@H](Cc1c[nH]cn1)C(=O)N[C@H](C(=O)N[C@@H](Cc1ccc(O)cc1)C(N)=O)[C@@H](C)O)C(C)C)[C@@H](C)O, also called 44; compound 44) | 0.275 nM
2 | {C20 diacid-γGlu}-GRCNTATCATQRLANFLRHSSPNFGAIPSSTNVGSNTY-NH2 (disulfide 3-8; SMILES CC[C@H](C)[C@H](NC(=O)[C@H](C)NC(=O)CNC(=O)[C@H](Cc1ccccc1)NC(=O)[C@H](CC(N)=O)NC(=O)[C@@H]1CCCN1C(=O)[C@H](CO)NC(=O)[C@H](CO)NC(=O)[C@H](Cc1c[nH]cn1)NC(=O)[C@H](CCCNC(=N)N)NC(=O)[C@H](CC(C)C)NC(=O)[C@H](Cc1ccccc1)NC(=O)[C@H](CC(N)=O)NC(=O)[C@H](C)NC(=O)[C@H](CC(C)C)NC(=O)[C@H](CCCNC(=N)N)NC(=O)[C@H](CCC(N)=O)NC(=O)[C@@H](NC(=O)[C@H](C)NC(=O)[C@@H]1CSSC[C@H](NC(=O)[C@H](CCCNC(=N)N)NC(=O)CNC(=O)CC[C@H](NC(=O)CCCCCCCCCCCCCCCCCCC(=O)O)C(=O)O)C(=O)N[C@@H](CC(N)=O)C(=O)N[C@@H]([C@@H](C)O)C(=O)N[C@@H](C)C(=O)N[C@@H]([C@@H](C)O)C(=O)N1)[C@@H](C)O)C(=O)N1CCC[C@H]1C(=O)N[C@@H](CO)C(=O)N[C@@H](CO)C(=O)N[C@H](C(=O)N[C@@H](CC(N)=O)C(=O)N[C@H](C(=O)NCC(=O)N[C@@H](CO)C(=O)N[C@@H](CC(N)=O)C(=O)N[C@H](C(=O)N[C@@H](Cc1ccc(O)cc1)C(N)=O)[C@@H](C)O)C(C)C)[C@@H](C)O, also called 46; compound 46) [N^-1-[(4S)-4-carboxy-4-(19-carboxynonadecanoylamino)butanoyl]-Gly[Arg1,Arg17,Pro21,Pro27]-h-amylin] | 0.195 nM
3 | K([γGlu-C20 diacid])CNTATCATQRLANFLRHSSPNFGAIPSSTNVGSNTY-NH2 (disulfide 2-7; N-terminus assumed; SMILES CC[C@H](C)[C@H](NC(=O)[C@H](C)NC(=O)CNC(=O)[C@H](Cc1ccccc1)NC(=O)[C@H](CC(N)=O)NC(=O)[C@@H]1CCCN1C(=O)[C@H](CO)NC(=O)[C@H](CO)NC(=O)[C@H](Cc1c[nH]cn1)NC(=O)[C@H](CCCNC(=N)N)NC(=O)[C@H](CC(C)C)NC(=O)[C@H](Cc1ccccc1)NC(=O)[C@H](CC(N)=O)NC(=O)[C@H](C)NC(=O)[C@H](CC(C)C)NC(=O)[C@H](CCCNC(=N)N)NC(=O)[C@H](CCC(N)=O)NC(=O)[C@@H](NC(=O)[C@H](C)NC(=O)[C@@H]1CSSC[C@H](NC(=O)[C@@H](N)CCCCNC(=O)CC[C@H](NC(=O)CCCCCCCCCCCCCCCCCCC(=O)O)C(=O)O)C(=O)N[C@@H](CC(N)=O)C(=O)N[C@@H]([C@@H](C)O)C(=O)N[C@@H](C)C(=O)N[C@@H]([C@@H](C)O)C(=O)N1)[C@@H](C)O)C(=O)N1CCC[C@H]1C(=O)N[C@@H](CO)C(=O)N[C@@H](CO)C(=O)N[C@H](C(=O)N[C@@H](CC(N)=O)C(=O)N[C@H](C(=O)NCC(=O)N[C@@H](CO)C(=O)N[C@@H](CC(N)=O)C(=O)N[C@H](C(=O)N[C@@H](Cc1ccc(O)cc1)C(N)=O)[C@@H](C)O)C(C)C)[C@@H](C)O, also called 48; compound 48) [N^ε1-[(4S)-4-carboxy-4-(19-carboxynonadecanoylamino)butanoyl]-[Arg17,Pro21,Pro27]-h-amylin] | 0.443 nM

Continued, values first:

Row | IC50 | Binder
4 | 0.344 nM | {C20 diacid-γGlu}-GRCNTATCATQRLANFLRHSSPNFGAIPSSTNVGSHTY-NH2 (disulfide 3-8; SMILES CC[C@H](C)[C@H](NC(=O)[C@H](C)NC(=O)CNC(=O)[C@H](Cc1ccccc1)NC(=O)[C@H](CC(N)=O)NC(=O)[C@@H]1CCCN1C(=O)[C@H](CO)NC(=O)[C@H](CO)NC(=O)[C@H](Cc1c[nH]cn1)NC(=O)[C@H](CCCNC(=N)N)NC(=O)[C@H](CC(C)C)NC(=O)[C@H](Cc1ccccc1)NC(=O)[C@H](CC(N)=O)NC(=O)[C@H](C)NC(=O)[C@H](CC(C)C)NC(=O)[C@H](CCCNC(=N)N)NC(=O)[C@H](CCC(N)=O)NC(=O)[C@@H](NC(=O)[C@H](C)NC(=O)[C@@H]1CSSC[C@H](NC(=O)[C@H](CCCNC(=N)N)NC(=O)CNC(=O)CC[C@H](NC(=O)CCCCCCCCCCCCCCCCCCC(=O)O)C(=O)O)C(=O)N[C@@H](CC(N)=O)C(=O)N[C@@H]([C@@H](C)O)C(=O)N[C@@H](C)C(=O)N[C@@H]([C@@H](C)O)C(=O)N1)[C@@H](C)O)C(=O)N1CCC[C@H]1C(=O)N[C@@H](CO)C(=O)N[C@@H](CO)C(=O)N[C@H](C(=O)N[C@@H](CC(N)=O)C(=O)N[C@H](C(=O)NCC(=O)N[C@@H](CO)C(=O)N[C@@H](Cc1c[nH]cn1)C(=O)N[C@H](C(=O)N[C@@H](Cc1ccc(O)cc1)C(N)=O)[C@@H](C)O)C(C)C)[C@@H](C)O, also called 47; compound 47)
5 | 0.076 nM | K([AEEA-C20 diacid])CNTATCATQRLANFLRHSSPNFGAIPSSTNVGSNTY-NH2 (disulfide 2-7; N-terminus assumed; SMILES CC[C@H](C)[C@H](NC(=O)[C@H](C)NC(=O)CNC(=O)[C@H](Cc1ccccc1)NC(=O)[C@H](CC(N)=O)NC(=O)[C@@H]1CCCN1C(=O)[C@H](CO)NC(=O)[C@H](CO)NC(=O)[C@H](Cc1c[nH]cn1)NC(=O)[C@H](CCCNC(=N)N)NC(=O)[C@H](CC(C)C)NC(=O)[C@H](Cc1ccccc1)NC(=O)[C@H](CC(N)=O)NC(=O)[C@H](C)NC(=O)[C@H](CC(C)C)NC(=O)[C@H](CCCNC(=N)N)NC(=O)[C@H](CCC(N)=O)NC(=O)[C@@H](NC(=O)[C@H](C)NC(=O)[C@@H]1CSSC[C@H](NC(=O)[C@@H](N)CCCCNC(=O)COCCOCCNC(=O)CCCCCCCCCCCCCCCCCCC(=O)O)C(=O)N[C@@H](CC(N)=O)C(=O)N[C@@H]([C@@H](C)O)C(=O)N[C@@H](C)C(=O)N[C@@H]([C@@H](C)O)C(=O)N1)[C@@H](C)O)C(=O)N1CCC[C@H]1C(=O)N[C@@H](CO)C(=O)N[C@@H](CO)C(=O)N[C@H](C(=O)N[C@@H](CC(N)=O)C(=O)N[C@H](C(=O)NCC(=O)N[C@@H](CO)C(=O)N[C@@H](CC(N)=O)C(=O)N[C@H](C(=O)N[C@@H](Cc1ccc(O)cc1)C(N)=O)[C@@H](C)O)C(C)C)[C@@H](C)O, also called 43; compound 43) [N^ε1-[2-[2-[2-(19-carboxynonadecanoylamino)ethoxy]ethoxy]acetyl]-[Arg17,Pro21,Pro27]-h-amylin]
6 | 0.552 nM | K([AEEA-γGlu-C20 diacid])RCNTATCATQRLANFLRHSSPNFGAIPSSTNVGSHTY-NH2 (disulfide 3-8; N-terminus assumed; SMILES CC[C@H](C)[C@H](NC(=O)[C@H](C)NC(=O)CNC(=O)[C@H](Cc1ccccc1)NC(=O)[C@H](CC(N)=O)NC(=O)[C@@H]1CCCN1C(=O)[C@H](CO)NC(=O)[C@H](CO)NC(=O)[C@H](Cc1c[nH]cn1)NC(=O)[C@H](CCCNC(=N)N)NC(=O)[C@H](CC(C)C)NC(=O)[C@H](Cc1ccccc1)NC(=O)[C@H](CC(N)=O)NC(=O)[C@H](C)NC(=O)[C@H](CC(C)C)NC(=O)[C@H](CCCNC(=N)N)NC(=O)[C@H](CCC(N)=O)NC(=O)[C@@H](NC(=O)[C@H](C)NC(=O)[C@@H]1CSSC[C@H](NC(=O)[C@H](CCCNC(=N)N)NC(=O)[C@@H](N)CCCCNC(=O)COCCOCCNC(=O)CC[C@H](NC(=O)CCCCCCCCCCCCCCCCCCC(=O)O)C(=O)O)C(=O)N[C@@H](CC(N)=O)C(=O)N[C@@H]([C@@H](C)O)C(=O)N[C@@H](C)C(=O)N[C@@H]([C@@H](C)O)C(=O)N1)[C@@H](C)O)C(=O)N1CCC[C@H]1C(=O)N[C@@H](CO)C(=O)N[C@@H](CO)C(=O)N[C@H](C(=O)N[C@@H](CC(N)=O)C(=O)N[C@H](C(=O)NCC(=O)N[C@@H](CO)C(=O)N[C@@H](Cc1c[nH]cn1)C(=O)N[C@H](C(=O)N[C@@H](Cc1ccc(O)cc1)C(N)=O)[C@@H](C)O)C(C)C)[C@@H](C)O, also called 45; compound 45)

From patent US20140087995A1 (published 2014)
